In this test the target is SARS-CoV-2 ΔN135 spike (S) protein, soluble prefusion-stabilised ectodomain trimer (SARS-CoV-2) (UniProt P0DTC2). Nature of the test: SEC-MALS. (Size exclusion chromatography separates by hydrodynamic size, large species first.)

Usually stoichiometry N stands for a count of units in the complex or per binding partner.

Regarding “SARS-CoV-2 ΔN135 spike (S) protein, soluble prefusion-stabilised ectodomain trimer (from UniProt P0DTC2 22-1208) (natural protein)”, the stoichiometry N was found to be 3.

Source of the values: article PMC10174534.
